This note sets out measurements from patent EP1230262B1 (BROWN UNIVERSITY RESEARCH FOUNDATION, dated 2017).

B1: decorin proteoglycan (core and side chains), recombinant, vaccinia system (other, UniProt P07585 31-359, looked up)
chain: DEASGIGPEVPDDRDFEPSLGPVCPFRCQCHLRVVQCSDLGLDKVPKDLPPDTTLLDLQNNKITEIKDGDFKNLKNLHALILVNNKISKVSPGAFTPLVKLERLYLSKNQLKELPEKMPKTLQELRAHENEITKVRKVTFNGLNQMIVIELGTNPLKSSGIENGAFQGMKKLSYIRIADTNITSIPQGLPPSLTELHLDGNKISRVDAASLKGLNNLAKLGLSFNSISAVDNGSLANTPHLRELHLDNNKLTRVPGGLAEHKYIQVVYLHNNNISVVGSSDFCPPGHNTKKASYSGVSLFSNPVQYWEIQPSTFRCVYVRSAIQLGNYK
modifications: glycosaminoglycan side chain
notes: also called DEC-PG; DECPG
B2: decorin core (no side chains), recombinant, vaccinia system (other, UniProt P07585 31-359, looked up)
chain: DEASGIGPEVPDDRDFEPSLGPVCPFRCQCHLRVVQCSDLGLDKVPKDLPPDTTLLDLQNNKITEIKDGDFKNLKNLHALILVNNKISKVSPGAFTPLVKLERLYLSKNQLKELPEKMPKTLQELRAHENEITKVRKVTFNGLNQMIVIELGTNPLKSSGIENGAFQGMKKLSYIRIADTNITSIPQGLPPSLTELHLDGNKISRVDAASLKGLNNLAKLGLSFNSISAVDNGSLANTPHLRELHLDNNKLTRVPGGLAEHKYIQVVYLHNNNISVVGSSDFCPPGHNTKKASYSGVSLFSNPVQYWEIQPSTFRCVYVRSAIQLGNYK

Assay in all cases: overlay assay with 35S in vitro translated sarcoglycan
Assay [1] addresses T1, α-sarcoglycan, recombinant human, 35S-labelled, in vitro transcribed and translated (human, UniProt Q16586 1-387, limits assumed, 35S label; not glycosylated).
T1 construct: also called alpha-sarcoglycan
T1 sequence (looked up): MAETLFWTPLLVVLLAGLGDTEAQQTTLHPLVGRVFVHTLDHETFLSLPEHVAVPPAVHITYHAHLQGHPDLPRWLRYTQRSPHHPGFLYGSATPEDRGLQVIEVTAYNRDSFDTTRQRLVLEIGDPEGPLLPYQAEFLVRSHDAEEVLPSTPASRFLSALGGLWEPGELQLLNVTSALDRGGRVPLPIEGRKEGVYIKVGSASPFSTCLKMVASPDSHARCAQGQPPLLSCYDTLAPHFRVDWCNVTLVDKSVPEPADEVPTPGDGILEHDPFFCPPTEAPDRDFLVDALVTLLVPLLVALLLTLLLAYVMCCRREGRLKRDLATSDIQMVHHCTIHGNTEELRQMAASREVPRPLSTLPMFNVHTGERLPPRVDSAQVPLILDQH

Assay [2] addresses B1.
The target in assay [3] is B2.

For the molecule B1, the binding result in assay [1] is “no binding”.
On the same count and under the same terms, the entry for B2 is “no binding”.

B3: γ-sarcoglycan, recombinant human, 35S-labelled, in vitro transcribed and translated (other, UniProt Q13326 1-291, looked up)
chain: MVREQYTTATEGICIERPENQYVYKIGIYGWRKRCLYLFVLLLLIILVVNLALTIWILKVMWFSPAGMGHLCVTKDGLRLEGESEFLFPLYAKEIHSRVDSSLLLQSTQNVTVNARNSEGEVTGRLKVGPKMVEVQNQQFQINSNDGKPLFTVDEKEVVVGTDKLRVTGPEGALFEHSVETPLVRADPFQDLRLESPTRSLSMDAPRGVHIQAHAGKIEALSQMDILFHSSDGMLVLDAETVCLPKLVQGTWGPSGSSQSLYEICVCPDGKLYLSVAGVSTTCQEHNHICL
modifications: 35S label; not glycosylated
notes: also called gamma-sarcoglycan
B3: the binding result in assay [2] and in assay [3] was “no binding” in each case.
